Assay results reported in the RNAGym collection of RNA variant scans (doi:10.1073/pnas.2313332121).

B1: TPR t1 (parent)
chain: GACCAAUCUGCCCUCAGAGCUCGAGAACAUCUUCGGAUGCAGAGGAGGCAGGCUUCGGUGGCGCGAUAGCGCCAACGUCCUCAACCUCCAAUGCAUCCCACCACAUGAUGAUGCCUGAAGAGCCUUGGUUUUUUG

Variants of: B1
Assay: polymerase ribozyme fitness, log enrichment relative to wild type (log ratio); higher = more active; in vitro selection for triplet polymerase activity
Method in brief: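 One round of in vitro selection, in triplicate, was applied to PCR-built, transcribed mutant libraries of each subunit of a heterodimeric triplet polymerase ribozyme. The steps were annealing with a biotinylated primer, partner subunit and triplets, incubation frozen at −7 °C, gel excision of extended constructs, streptavidin-bead capture and RT-PCR. Fitness is the logarithm, base 2, of genotype enrichment over wild-type enrichment from inverse-variance-weighted replicate averages of Illumina-sequenced inputs and outputs, keeping genotypes with ≥10 input reads and ≥1 read per output.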

In order of falling “polymerase ribozyme fitness (log ratio)” value:
1. U55G C123G  2.06
2. C56G U78G A121C  1.64
3. C56A C73U C124U  1.55
4. C56A G77C C124A  1.47
5. C56A U78C G93A C123U  1.38
6. C56U C123G  1.1
7. C56U C123U  1.04
8. C56G C85U A121U  0.921
9. C56G G63A G77U G120C  0.612
10. C56U C123A  0.593
11. C56A C73U  0.483
12. C56G C101U U130C  0.475
13. C56U C115A  0.248
14. C56A C86A G120C  0.246
15. C56G G120A  0.238
16. C56U C101U  0.177
17. C56U C62U C123A  0.0354
18. U55G C76A  -0.0105
19. C56G G120U  -0.0956
20. C56G G61A U78G C88U U112A  -0.105
21. C56A U112C  -0.107
22. C56U A90G C97U  -0.119
23. C56A G69U  -0.137
24. C56A U78G  -0.153
25. C56A U130C  -0.155
26. C56U C72A G120A  -0.183
27. U55G C62A  -0.186
28. C56A A111C  -0.279
29. C56G C89U  -0.286
30. C56G G135C  -0.404
31. C56U C79U U92C U112A  -0.412
32. C56A G120C A121U U131A  -0.425
33. C56A U78G C86A G120U  -0.426
34. C56A G110A  -0.447
35. C56U C94A  -0.478
36. U55G C56A C79G C124U  -0.518
37. U55C G93C U133A  -0.554
38. C56G C94A  -0.555
39. C56A U129C  -0.603
40. U55G C62G  -0.626
41. C56A C73A  -0.651
42. C56G C79A C115A U131A  -0.673
43. C56U A119U  -0.819
44. C56U G57U  -0.86
45. C56U C79A  -0.918
46. U55G C85U  -0.919
47. C56G C85U  -0.934
48. U55G G113C  -0.955
49. C56A G128U U129G  -0.991
50. C56G U130C  -1.02
51. U55C G63U  -1.09
52. C56A A84C  -1.1
53. C56A U59G  -1.14
54. C56G C64U C79A  -1.17
55. C56G C79A  -1.17
56. U55G G71A  -1.19
57. C56A C82U C104U G122A U125A  -1.2
58. C56A C72G U106A  -1.22
59. C56A U129A  -1.22
60. C56A C80U  -1.23
61. U55G G71A C101A  -1.24
62. C56U C114A  -1.27
63. C56U C89G  -1.27
64. C56U C72U C79U C101A  -1.28
65. C56A C104U G117A  -1.3
66. U55G C72U C88G  -1.33
67. C56A U125G  -1.39
68. C56G C115U  -1.4
69. C56G U96G G120U  -1.41
70. C56G C72A C79U  -1.41
71. C56G A84G  -1.43
72. C56U A90U U92A  -1.45
73. C56G A66U C88U C115A  -1.49
74. C56G A74G  -1.5
75. C56U C72U G120C G127A U134C  -1.5
76. C56A G61A  -1.51
77. U55G G69C  -1.57
78. C56G U59C  -1.57
79. C56A G69U C88G C115U  -1.62
80. C56A C62U C85U  -1.64
81. U55G G69A  -1.67
82. C56A G135U  -1.7
83. C56G A91C G117C A119G  -1.73
84. C56A G71U C82U  -1.78
85. C56U C101A  -1.79
86. C56A C98U  -1.91
87. C56G G58U A90U  -1.92
88. C56U C73U C88G  -1.95
89. C56A C70U C80U G120C C123G  -1.95
90. C56U C85A  -1.96
91. C56A G117U  -2.01
92. C56A C64U C115A U126C  -2.05
93. C56A C82A C97U U129G  -2.1
94. C56A G117A  -2.11
95. C56G G110U A111G  -2.16
96. C56G A90G G127C  -2.21
97. C56G C85A  -2.26
98. C56G G61A  -2.31
99. C56G G61U  -2.32
100. C56U C86U C89U U116G  -2.41
101. C56U C79U G113C  -2.44
102. U55G C99U  -2.45
103. C56G A111U  -2.49
104. C56U C114G  -2.54
105. C56G G113C U133G  -2.55
106. C56U C101A C114A  -2.61
107. C56U A84G A95C G127U  -2.62
108. C56G A95G A111U  -2.63
109. C56A G110C  -2.63
110. C56G A90U U92G C97U  -2.65
111. C56U A74G G110A U112A  -2.67
112. C56G A83U C115U  -2.71
113. C56A C64U G120C  -2.77
114. C56A C80G  -2.82
115. C56A U81A A83C  -2.85
116. C56G C72A G110U A111G  -2.87
117. C56A G69A U133C  -2.92
118. C56A C73A C124G U125C U126A  -2.94
119. C56G U78A U81A G113C  -3.06
120. C56G G77A C102U U116C  -3.2
121. C56A C70A G77C  -3.23
122. C56A G93U U112A U116G  -3.29
123. C56A A95C U106A G128A  -3.3
124. C56U C64U A74G  -3.32
125. C56G C70U U96A U132A  -3.39
126. C56A A95C C102A  -3.39
127. C56A G117C  -3.44
128. C56G G110C  -3.6
129. C56U C73G C115U  -3.6
130. C56A A84U C94A C114A  -3.7
131. U55G C104U G113C C123A  -3.72
132. C56G G71A C82A C115A  -3.76
133. C56A A108G G117U  -3.81
134. C56A G69A A84G A121C  -3.85
135. C56A G69C  -3.89
136. C56A G77C C98U G128A  -3.89
137. C56A C72A C76U U116G  -3.97
138. C56G G71U G120A G127A  -4.03
139. C56A G63A U78C  -4.18
140. C56A G71U C85U C102A C124U  -4.27
141. C56G U109A  -4.28
142. C56U C73U U109A  -4.36
143. C56U A74G U81G G117U A118U  -4.51
144. C56G A84G C114U  -4.61
145. C56A G69U U78A A90C C97A A118U  -4.65
146. C56U C62A A75U U81C C114A U125G  -4.69
147. C56A G117A U125G G128C  -4.73
148. C56A C85G U92C  -4.74
149. C56A C94G C101A U116G  -4.75
150. C56G C72G C82A C114U  -4.76
151. C56G C97A G122A  -4.86
152. U55G A103C  -4.87
153. C56U C104G C115A  -4.93
154. C56G C72A C79U G117U  -4.93
155. U55G C56G A68G  -5.14
156. C56G C97A  -5.24
157. C56U C80G  -5.25
158. C56A A105G A111C G113A  -5.31
159. C56A C98A  -5.59
160. U55G C85A U92G U106A  -5.73
161. U55G C72A U106G G113U U133A  -5.76
162. C56A C64A G93A C104A U109G A111C  -5.87
163. C56G A68U  -6.1
164. U55G U87A C98G U109G A121C  -6.47
165. C56G G57U G65A C101G A111C  -6.81
166. C56U G60A A68C C70U  -6.82
167. C56U A68U C70U U92C C104U C124U  -7.15
